According to patent US20020037853A1:
Values belong to the substance of their own block, whether it stands above or below them. No end group written: not given here.

What was measured:
[1] = target: cell surface receptors for collagen on human dermal fibroblasts; experiment: attachment of fibroblasts to collagen-coated dishes, peptide in the medium at 35 × 10^-6 M; competitor collagen
[2] = target: cell surface receptors for collagen on human dermal fibroblasts; experiment: cell-binding activity relative to the inventive peptide of Examples 1 and 2
[3] = target: cell surface receptors for collagen on human dermal fibroblasts; experiment: cell-binding activity relative to the SEQ ID NO:1 peptide
[4] = target: cell surface receptors for collagen on human dermal fibroblasts; experiment: attachment of fibroblasts to collagen-coated dishes, peptide in the medium at 7.2 × 10^-6 M; competitor collagen
[5] = target: cell surface receptors for collagen on human dermal fibroblasts; experiment: about 100,000 human fetal dermal fibroblasts on coated glass coverslips, 15 min, attached cells counted; uncoated control 7.01
[6] = target: cell surface receptors for collagen on human dermal fibroblasts; experiment: fibroblast attachment to coated coverslips, 15 min
[7] = target: cell surface receptors for collagen on human dermal fibroblasts; experiment: fibroblast attachment to coated coverslips, 15 min; reference collagen
[8] = target: cell surface receptors for collagen on human dermal fibroblasts; experiment: various other similar cell attachment studies on glass or polystyrene
[9] = target: cell surface receptors for collagen on human dermal fibroblasts; experiment: attachment of fibroblasts to collagen-coated dishes, peptide in the medium at 36 × 10^-6 M; competitor collagen
[10] = target: cell surface receptors for collagen on human dermal fibroblasts; experiment: attachment of fibroblasts to collagen-coated dishes, polyproline in the medium at 1.7 × 10^-6 M; competitor collagen
[11] = target: cell surface receptors for collagen on human dermal fibroblasts; experiment: biological (cell-binding) activity relative to P-15; assay not described there

Substance: Dynorphin 1-13 (from UniProt P01213 207-219) (peptide)
- % Inhibition of Cell Attachment [1]: 19%
- % of Maximal Cell Attachment [1]: 81%

Substance: GPQGIAGQR (SEQ ID NO:2)
- Relative Cell-Binding Activity (% relative to the SEQ ID NO:1 peptide) [2]: 100

Substance: Gln-Gly-Ile-Ala-Gly (SEQ ID NO:8) (peptide)
- cell-binding activity relative to the SEQ ID NO:1 peptide [3]: 42%

Substance: Gly-Ile-Ala-Gly-Gln (SEQ ID NO:6) (peptide)
- Relative Cell-Binding Activity (% relative to the SEQ ID NO:1 peptide) [2]: 70

Substance: QGIAGQ (SEQ ID NO:3)
- Relative Cell-Binding Activity (% relative to the SEQ ID NO:1 peptide) [2]: 120

Substance: human preangiotensinogen 1-14 (from UniProt P01019 25-38) (peptide)
- % Inhibition of Cell Attachment [1]: 12%
- % of Maximal Cell Attachment [1]: 88%

Second part, the substance after the results:

- Relative Cell-Binding Activity (% relative to the SEQ ID NO:1 peptide) [2]: 87
Substance: FGIAGF (SEQ ID NO:5)

- % Inhibition of Cell Attachment [4]: 85%
- % of Maximal Cell Attachment [4]: 15%
- Concentration of Cells (relative binding of cells after 15 minutes) [5]: 11.1
- increase in cell binding over the control (no collagen or peptide) [6]: 60%
- increase in cell binding over collagen-coated dishes [7]: 40%
- potency in binding cells relative to collagen (fold over collagen) [8]: 2
- % Inhibition of Cell Attachment [9]: 88%
- % of Maximal Cell Attachment [9]: 12%
Substance: Inventive peptide Gly-Thr-Pro-Gly-Pro-Gln-Gly-Ile-Ala-Gly-Gln-Arg-Gly-Val-Val (SEQ ID NO:1)

- % Inhibition of Cell Attachment [10]: 10%
- % of Maximal Cell Attachment [10]: 90%
Substance: Polyproline (peptide)

- Relative Cell-Binding Activity (% relative to the SEQ ID NO:1 peptide) [2]: 70
Substance: QGAIAQ (SEQ ID NO:7)

- Relative Cell-Binding Activity (% relative to the SEQ ID NO:1 peptide) [2]: 60
Substance: QGIAGQR (SEQ ID NO:4)

- Concentration of Cells (relative binding of cells after 15 minutes) [5]: 8.59
Substance: Rat tail tendon collagen (rat tail type I collagen) (from UniProt P02454 152-1207; P02466 86-1125)

- biological activity relative to P-15 [11]: 60%
Substance: dipeptide -Ile-Ala-
